B1: 6xHis-tagged PDZ1 domain of ZO-3 (aa 5-96) (domain or fragment)
chain: TIWEQHTATLYKDPRRGFGIAVSGGHDRASGSVVVSDVVPGSPAEGRLRTGDHIVMVNGVSVENVTSAFAIQILKTCTKTANVTVKRPRRVQ
B2: 6xHis-tagged PDZ1 domain of ZO-1 (aa 19-113) (domain or fragment)
chain: WEQHTVTLHRAPGFGFGIAISGGRDNPHFQSGETSIVISDVLKGGPAEGQLQENDRVAMVNGVSMDNVEHAFAVQQLRKSGKNAKITIRRKKKVQ
B3: 6xHis-tagged PDZ1 domain of ZO-2 (aa 4-100) (domain or fragment)
chain: VIWEQYTVTLQKDSKRGFGIAVSGGRDNPHFENGETSIVISDVLPGGPADGLLQENDRVVMVNGTPMEDVLHSFAVQQLRKSGKIAAIVVKRPRKVQ

Molecular target: GST fusion protein with the cytoplasmic domain of claudin-1 (UniProt O88551)
Sequence of UniProt O88551 (O88551 whole entry, the tested form may be a part): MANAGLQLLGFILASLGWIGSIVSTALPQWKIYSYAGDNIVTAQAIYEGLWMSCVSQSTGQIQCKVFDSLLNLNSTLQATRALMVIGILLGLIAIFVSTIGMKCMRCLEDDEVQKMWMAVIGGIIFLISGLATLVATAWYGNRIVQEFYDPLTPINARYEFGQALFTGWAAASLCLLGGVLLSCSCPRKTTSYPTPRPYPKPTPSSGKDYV
Test: pull-down

How did the Kd turn out when B1 was run?
The Kd was 18 nM.

B2 was tested. Which Kd did it give?
Its Kd is 13 nM.

B3 was tested. Which Kd did it give?
The Kd was 11 nM.
